Results as given in the supplement of paper PMC10567573.

B1: NEK8 (parent)
chain: YTFGSNQHGQLGTNTRRGSRAPCK
B2: PLK2 (parent)
chain: MELLRTITYQPAASTKMCEQALGK

Variants of: B1
Assay: protein stability index of a GFP-peptide fusion (GPS, HEK-293T) (PSI 1-6); higher = more stable
Conditions: c terminus: a fixed tail appended
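Also: lentivirally expressed fusions sorted by FACS into six bins by GFP to DsRed ratio, PSI derived from sequencing read proportions per bin multiplied by bin number.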

In order of falling protein stability index:
1. YTFGSNQHGQLGTNTRRGSKAPCK  4.38
2. YTFGSNQHGQLGTNTRRGSREPCK  4.32
3. YTFGSNQHGQLGTNTRRGSRTPCK  4.3
4. YTFGSNQHGQLGTNTRRGSRAGCK  4.3
5. YTFGSNQHGQLGTNTRRGSRAPCG  4.29
6. YTFGSNQHGQLGTNTRRGSRAPEK  4.27
7. YTFGSNQHGQLGTNTRRGSRAPVK  4.25
8. YTFGSNQHGQLGTNTRRGSRAPHK  4.25
9. YTFGSNQHGQLGTNTRRGSRKPCK  4.24
10. YTFGSNQHGQLGTNTRRGSRANCK  4.22
11. YTFGSNQHGQLGTNTRRGSRAPKK  4.21
12. YTFGSNQHGQLGTNTRRGSRAPDK  4.19
13. YTFGSNQHGQLGTNTRRGSRAPNK  4.19
14. YTFGSNQHGQLGTNTRRGSRAPQK  4.18
15. YTFGSNQHGQLGTNTRRGSQAPCK  4.17
16. YTFGSNQHGQLGTNTRRGSRADCK  4.13
17. YTFGSNQHGQLGTNTRRGSRDPCK  4.11
18. YTFGSNQHGQLGTNTRRGSEAPCK  4.1
19. YTFGSNQHGQLGTNTRRGSRNPCK  4.1
20. YTFGSNQHGQLGTNTRRGSRAPCP  4.09
21. YTFGSNQHGQLGTNTRRGSNAPCK  4.05
22. YTFGSNQHGQLGTNTRRGSRAPRK  4
23. YTFGSNQHGQLGTNTRRGSRAVCK  3.99
24. YTFGSNQHGQLGTNTRRGSGAPCK  3.97
25. YTFGSNQHGQLGTNTRRGSHAPCK  3.96
26. YTFGSNQHGQLGTNTRRGSRASCK  3.96
27. YTFGSNQHGQLGTNTRRGSRAPAK  3.95
28. YTFGSNQHGQLGTNTRRGSRATCK  3.95
29. YTFGSNQHGQLGTNTRRGSRAICK  3.94
30. YTFGSNQHGQLGTNTRRGSRAPLK  3.91
31. YTFGSNQHGQLGTNTRRGSRAPCD  3.91
32. YTFGSNQHGQLGTNTRRGSRAPTK  3.9
33. YTFGSNQHGQLGTNTRRGSRAPPK  3.89
34. YTFGSNQHGQLGTNTRRGSRQPCK  3.89
35. YTFGSNQHGQLGTNTRRGSRAECK  3.88
36. YTFGSNQHGQLGTNTRRGSTAPCK  3.86
37. YTFGSNQHGQLGTNTRRGSRVPCK  3.84
38. YTFGSNQHGQLGTNTRRGSRSPCK  3.84
39. YTFGSNQHGQLGTNTRRGSRACCK  3.84
40. YTFGSNQHGQLGTNTRRGSPAPCK  3.83
41. YTFGSNQHGQLGTNTRRGSRAKCK  3.82
42. YTFGSNQHGQLGTNTRRGSRARCK  3.82
43. YTFGSNQHGQLGTNTRRGSRAACK  3.82
44. YTFGSNQHGQLGTNTRRGSRAPCL  3.81
45. YTFGSNQHGQLGTNTRRGSRHPCK  3.79
46. YTFGSNQHGQLGTNTRRGSRAPCQ  3.79
47. YTFGSNQHGQLGTNTRRGSRAPCE  3.77
48. YTFGSNQHGQLGTNTRRGSRAQCK  3.73
49. YTFGSNQHGQLGTNTRRGSRAPSK  3.72
50. YTFGSNQHGQLGTNTRRGSRAYCK  3.72
51. YTFGSNQHGQLGTNTRRGSRGPCK  3.7
52. YTFGSNQHGQLGTNTRRGSRPPCK  3.69
53. YTFGSNQHGQLGTNTRRGSRIPCK  3.69
54. YTFGSNQHGQLGTNTRRGSRAPCV  3.68
55. YTFGSNQHGQLGTNTRRGSRAFCK  3.66
56. YTFGSNQHGQLGTNTRRGSRAPFK  3.61
57. YTFGSNQHGQLGTNTRRGSRAPMK  3.61
58. YTFGSNQHGQLGTNTRRGSRAPIK  3.59
59. YTFGSNQHGQLGTNTRRGSSAPCK  3.55
60. YTFGSNQHGQLGTNTRRGSRFPCK  3.54
61. YTFGSNQHGQLGTNTRRGSRLPCK  3.54
62. YTFGSNQHGQLGTNTRRGSLAPCK  3.53
63. YTFGSNQHGQLGTNTRRGSRRPCK  3.53
64. YTFGSNQHGQLGTNTRRGSRAHCK  3.53
65. YTFGSNQHGQLGTNTRRGSIAPCK  3.52
66. YTFGSNQHGQLGTNTRRGSRAPCH  3.52
67. YTFGSNQHGQLGTNTRRGSRAWCK  3.51
68. YTFGSNQHGQLGTNTRRGSRMPCK  3.5
69. YTFGSNQHGQLGTNTRRGSVAPCK  3.48
70. YTFGSNQHGQLGTNTRRGSRAPYK  3.46
71. YTFGSNQHGQLGTNTRRGSRAPCA  3.45
72. YTFGSNQHGQLGTNTRRGSRAPCR  3.44
73. YTFGSNQHGQLGTNTRRGSRAMCK  3.44
74. YTFGSNQHGQLGTNTRRGSRAPCT  3.43
75. YTFGSNQHGQLGTNTRRGSRAPGK  3.4
76. YTFGSNQHGQLGTNTRRGSRALCK  3.4
77. YTFGSNQHGQLGTNTRRGSRYPCK  3.38
78. YTFGSNQHGQLGTNTRRGSRAPWK  3.37
79. YTFGSNQHGQLGTNTRRGSRAPCS  3.24
80. YTFGSNQHGQLGTNTRRGSRAPCN  3.2
81. YTFGSNQHGQLGTNTRRGSMAPCK  3.15
82. YTFGSNQHGQLGTNTRRGSRAPCI  3.08
83. YTFGSNQHGQLGTNTRRGSYAPCK  3.07
84. YTFGSNQHGQLGTNTRRGSRCPCK  2.94
85. YTFGSNQHGQLGTNTRRGSRAPCM  2.94
86. YTFGSNQHGQLGTNTRRGSRAPCF  2.93
87. YTFGSNQHGQLGTNTRRGSFAPCK  2.85
88. YTFGSNQHGQLGTNTRRGSRAPCC  2.72
89. YTFGSNQHGQLGTNTRRGSRWPCK  2.69
90. YTFGSNQHGQLGTNTRRGSRAPCY  2.63
91. YTFGSNQHGQLGTNTRRGSRAPCW  2.59
92. YTFGSNQHGQLGTNTRRGSWAPCK  2.21

Variants of: B2
Assay: as above
Conditions: c terminus: a fixed tail appended

In order of rising protein stability index:
1. MEKLRTITYQPAASTKMCEQALGK  1.37
2. MELLYTITYQPAASTKMCEQALGK  1.4
3. MELLCTITYQPAASTKMCEQALGK  1.47
4. CELLRTITYQPAASTKMCEQALGK  1.51
5. MILLRTITYQPAASTKMCEQALGK  1.51
6. MELMRTITYQPAASTKMCEQALGK  1.61
7. MEHLRTITYQPAASTKMCEQALGK  1.62
8. MFLLRTITYQPAASTKMCEQALGK  1.69
9. MELWRTITYQPAASTKMCEQALGK  1.7
10. MALLRTITYQPAASTKMCEQALGK  1.79
11. MENLRTITYQPAASTKMCEQALGK  1.88
12. MEGLRTITYQPAASTKMCEQALGK  1.89
13. MQLLRTITYQPAASTKMCEQALGK  1.91
14. MELLATITYQPAASTKMCEQALGK  1.92
15. MELLRAITYQPAASTKMCEQALGK  1.93
16. MCLLRTITYQPAASTKMCEQALGK  1.93
17. METLRTITYQPAASTKMCEQALGK  1.94
18. MELYRTITYQPAASTKMCEQALGK  1.98
19. MELCRTITYQPAASTKMCEQALGK  2.02
20. IELLRTITYQPAASTKMCEQALGK  2.03
21. MYLLRTITYQPAASTKMCEQALGK  2.03
22. FELLRTITYQPAASTKMCEQALGK  2.04
23. MELFRTITYQPAASTKMCEQALGK  2.05
24. MHLLRTITYQPAASTKMCEQALGK  2.05
25. MEYLRTITYQPAASTKMCEQALGK  2.07
26. MEQLRTITYQPAASTKMCEQALGK  2.08
27. MMLLRTITYQPAASTKMCEQALGK  2.09
28. MVLLRTITYQPAASTKMCEQALGK  2.13
29. MLLLRTITYQPAASTKMCEQALGK  2.15
30. MRLLRTITYQPAASTKMCEQALGK  2.15
31. WELLRTITYQPAASTKMCEQALGK  2.16
32. SELLRTITYQPAASTKMCEQALGK  2.17
33. MECLRTITYQPAASTKMCEQALGK  2.17
34. MELLFTITYQPAASTKMCEQALGK  2.18
35. AELLRTITYQPAASTKMCEQALGK  2.18
36. MESLRTITYQPAASTKMCEQALGK  2.21
37. VELLRTITYQPAASTKMCEQALGK  2.23
38. MERLRTITYQPAASTKMCEQALGK  2.24
39. MTLLRTITYQPAASTKMCEQALGK  2.28
40. MELLMTITYQPAASTKMCEQALGK  2.36
41. LELLRTITYQPAASTKMCEQALGK  2.37
42. MSLLRTITYQPAASTKMCEQALGK  2.38
43. MEDLRTITYQPAASTKMCEQALGK  2.46
44. MELLTTITYQPAASTKMCEQALGK  2.47
45. MEWLRTITYQPAASTKMCEQALGK  2.48
46. MEVLRTITYQPAASTKMCEQALGK  2.49
47. YELLRTITYQPAASTKMCEQALGK  2.54
48. MELARTITYQPAASTKMCEQALGK  2.55
49. MEELRTITYQPAASTKMCEQALGK  2.56
50. MEFLRTITYQPAASTKMCEQALGK  2.56
51. MWLLRTITYQPAASTKMCEQALGK  2.57
52. MELQRTITYQPAASTKMCEQALGK  2.58
53. MELHRTITYQPAASTKMCEQALGK  2.6
54. MNLLRTITYQPAASTKMCEQALGK  2.61
55. MEILRTITYQPAASTKMCEQALGK  2.63
56. MGLLRTITYQPAASTKMCEQALGK  2.69
57. MKLLRTITYQPAASTKMCEQALGK  2.7
58. MELLSTITYQPAASTKMCEQALGK  2.71
59. MPLLRTITYQPAASTKMCEQALGK  2.73
60. MDLLRTITYQPAASTKMCEQALGK  2.75
61. MELVRTITYQPAASTKMCEQALGK  2.77
62. MEALRTITYQPAASTKMCEQALGK  2.82
63. MELLWTITYQPAASTKMCEQALGK  2.88
64. MELIRTITYQPAASTKMCEQALGK  2.92
65. MELLGTITYQPAASTKMCEQALGK  3.02
66. MELLHTITYQPAASTKMCEQALGK  3.02
67. RELLRTITYQPAASTKMCEQALGK  3.04
68. MEMLRTITYQPAASTKMCEQALGK  3.04
69. MELLITITYQPAASTKMCEQALGK  3.09
70. MEPLRTITYQPAASTKMCEQALGK  3.11
71. MELLQTITYQPAASTKMCEQALGK  3.26
72. MELRRTITYQPAASTKMCEQALGK  3.26
73. MELLKTITYQPAASTKMCEQALGK  3.52
74. MELLLTITYQPAASTKMCEQALGK  3.55
75. MELLETITYQPAASTKMCEQALGK  3.55
76. DELLRTITYQPAASTKMCEQALGK  3.64
77. HELLRTITYQPAASTKMCEQALGK  3.67
78. MELTRTITYQPAASTKMCEQALGK  3.67
79. MELERTITYQPAASTKMCEQALGK  3.69
80. TELLRTITYQPAASTKMCEQALGK  3.74
81. MELGRTITYQPAASTKMCEQALGK  3.76
82. MELLNTITYQPAASTKMCEQALGK  3.79
83. MELLPTITYQPAASTKMCEQALGK  3.83
84. GELLRTITYQPAASTKMCEQALGK  3.84
85. QELLRTITYQPAASTKMCEQALGK  3.84
86. KELLRTITYQPAASTKMCEQALGK  3.84
87. MELSRTITYQPAASTKMCEQALGK  3.91
88. MELLDTITYQPAASTKMCEQALGK  3.95
89. MELNRTITYQPAASTKMCEQALGK  4.01
90. MELKRTITYQPAASTKMCEQALGK  4.05
91. EELLRTITYQPAASTKMCEQALGK  4.07
92. MELLVTITYQPAASTKMCEQALGK  4.09
93. PELLRTITYQPAASTKMCEQALGK  4.09
94. NELLRTITYQPAASTKMCEQALGK  4.1
95. MELPRTITYQPAASTKMCEQALGK  4.25
96. MELDRTITYQPAASTKMCEQALGK  4.39
